What follows are sequences tested on Escherichia coli TOP10 (assay: shrunken log2 fold change of peptide-encoding DNA abundance (4.5 h post-induction vs induction); higher = less antimicrobial activity (less host growth inhibition)). Conditions: time post-induction: 4.5 h; library: site-saturation at positions 5, 18, 19, 20.
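Note: peptides expressed intracellularly from a pBAD plasmid library in pooled LB shake-flask culture, induced with 0.3% L-arabinose, DNA abundance read by NGS, three biological replicates, DESeq2 with apeglm shrinkage.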

Sequence | shrunken log2 fold change
RRIRMRPPRLPRPRPRPILVPRP | 0.133
RRIRQRPPRLPRPRPRPLTVPRP | 0.0325
RRIRDRPPRLPRPRPRPCIFPRP | 0.168
RRIRYRPPRLPRPRPRPRGFPRP | -0.0875
RRIRKRPPRLPRPRPRPYPIPRP | 0.11
RRIRHRPPRLPRPRPRPLHRPRP | -0.158
RRIRERPPRLPRPRPRPKSQPRP | -0.0879
RRIRYRPPRLPRPRPRPKWVPRP | -0.0135
RRIRHRPPRLPRPRPRPVLTPRP | -0.107
RRIRFRPPRLPRPRPRPLLHPRP | -0.247
RRIRSRPPRLPRPRPRPIYGPRP | -0.306
RRIRWRPPRLPRPRPRPTSNPRP | -0.0919
RRIRGRPPRLPRPRPRPNLKPRP | 0.189
RRIRIRPPRLPRPRPRPACCPRP | -0.086
RRIRYRPPRLPRPRPRPYDTPRP | -0.149
RRIRARPPRLPRPRPRPGQPPRP | 0.00358
RRIRFRPPRLPRPRPRPARIPRP | -0.0549
RRIRMRPPRLPRPRPRPKKRPRP | 2.01
RRIRWRPPRLPRPRPRPTDRPRP | -0.0423
RRIRKRPPRLPRPRPRPWDCPRP | 0.121
RRIRPRPPRLPRPRPRPTLNPRP | 0.0863
RRIRYRPPRLPRPRPRPRPVPRP | 0.0983
RRIRFRPPRLPRPRPRPYAKPRP | -0.552
RRIRVRPPRLPRPRPRPFASPRP | 0.0656
RRIRVRPPRLPRPRPRPGHWPRP | 0.164

Sequence | shrunken log2 fold change
RRIRTRPPRLPRPRPRPQQWPRP | 0.46
RRIRMRPPRLPRPRPRPLLNPRP | 0.366
RRIRIRPPRLPRPRPRPTWAPRP | 0.0207
RRIRARPPRLPRPRPRPVTDPRP | -0.0398
RRIRWRPPRLPRPRPRPGDGPRP | 0.881
RRIRDRPPRLPRPRPRPVRVPRP | 0.908
RRIRDRPPRLPRPRPRPFQAPRP | 0.0185
RRIRERPPRLPRPRPRPTRVPRP | -0.0943
RRIRRRPPRLPRPRPRPWTGPRP | -0.444
RRIRKRPPRLPRPRPRPPMSPRP | 0.328
RRIRVRPPRLPRPRPRPPPYPRP | 0.233
RRIRNRPPRLPRPRPRPWLQPRP | -0.0113
RRIRDRPPRLPRPRPRPKSSPRP | 0.0319
RRIRWRPPRLPRPRPRPYQNPRP | -0.847
RRIRRRPPRLPRPRPRPLMFPRP | 0.0336
RRIRYRPPRLPRPRPRPGGWPRP | 0.645
RRIRMRPPRLPRPRPRPFMYPRP | -0.219
RRIRLRPPRLPRPRPRPWNIPRP | -0.176
RRIRQRPPRLPRPRPRPQLGPRP | -0.194
RRIRVRPPRLPRPRPRPRCGPRP | -0.0269
RRIRWRPPRLPRPRPRPVPCPRP | -0.00353
RRIRQRPPRLPRPRPRPKLGPRP | 0.00556
RRIRCRPPRLPRPRPRPSCCPRP | 0.0437
RRIRHRPPRLPRPRPRPNPCPRP | -0.132
RRIRPRPPRLPRPRPRPSDAPRP | -0.0621

Sequence | shrunken log2 fold change
RRIRSRPPRLPRPRPRPYLAPRP | -0.251
RRIRYRPPRLPRPRPRPATWPRP | -0.154
RRIRARPPRLPRPRPRPFIAPRP | 0.0626
RRIRDRPPRLPRPRPRPESAPRP | 0.345
RRIRSRPPRLPRPRPRPVMSPRP | 0.11
RRIRFRPPRLPRPRPRPNLCPRP | 0.00999
RRIRGRPPRLPRPRPRPVIDPRP | 0.292
RRIRTRPPRLPRPRPRPDPCPRP | 0.0297
RRIRCRPPRLPRPRPRPELVPRP | 0.423
RRIRTRPPRLPRPRPRPYPGPRP | -0.164
RRIRGRPPRLPRPRPRPIQDPRP | 0.391
RRIRKRPPRLPRPRPRPWNRPRP | -0.078
RRIRYRPPRLPRPRPRPLNSPRP | -0.0402
RRIRERPPRLPRPRPRPVICPRP | -0.72
RRIRCRPPRLPRPRPRPAPWPRP | 0.438
RRIRHRPPRLPRPRPRPKFRPRP | -0.317
RRIRKRPPRLPRPRPRPKVCPRP | -0.0666
RRIRQRPPRLPRPRPRPNEDPRP | 0.031
RRIRFRPPRLPRPRPRPITTPRP | -0.198
RRIRSRPPRLPRPRPRPCPKPRP | 0.355
RRIRQRPPRLPRPRPRPGHQPRP | -0.00101
RRIRGRPPRLPRPRPRPAIWPRP | 0.396
RRIRKRPPRLPRPRPRPKKTPRP | 0.0396
RRIRTRPPRLPRPRPRPWRDPRP | 0.00299
RRIRPRPPRLPRPRPRPHVQPRP | -0.0151

Reference: the supplement of paper PMC9112550, “Optimization of the antimicrobial peptide Bac7 by deep mutational scanning” (BMC Biology, 2022)
